From patent US20050053993A1, “Uses of an endothelial cell receptor” (priority 2002, published 2005) come the findings set out here.

Assay [1] addresses GRP78 on the surface of human cells (EAHY, HMVEC, HT1080) (human) (UniProt P11021). Put plainly: cell-based or functional assay.
The target is the same in assay [2]. As to the kind of experiment: Scatchard analysis of 125I-dog K5 binding to endothelial cells.
Assay [3] has the same target. As to the kind of experiment: Scatchard analysis of 125I-dog K5 binding to endothelial cells (50,000 cells per well, 1 hour room temperature).
The subject of assay [4] is HT-29. As to the kind of experiment: Tumor cell proliferation, HT-29. Conditions: Homo sapiens; HT-29, 72 hours. Format: cell-based. Here is the method: (§1) Cell Proliferation Assay. The effect of rK5 and rK5 peptides on endothelial cells were assessed using a proliferation assay with 1% BSA and 3 ng/ml bFGF in serum-free media. Relative cell numbers in each well of a 96 well microplate after incubation for 72 hours in the absence or presence of inhibitors were determined by using the AQueous cell proliferation assay (Promega, San Luis Obispo, Calif.). For all other cell lines tested for proliferation, minimal growth media was used (Cao, Y., Ji, R., Davidson, D., Schaller, J., Marti, D., Sohndel, S., McCance, S., O'Reilly, M., Llinas, M., and Folkman, J. Kringle domains of human angiostatin. Characterization of the anti-proliferative activity on endothelial cells. (1996) J. Biol. Chem. 271, 29461-29467). Results are presented as the percent inhibition of control cell (bFGF-induced) proliferation.

Assay [5] concerns LNCaP. As to the kind of experiment: Tumor cell proliferation, LNCaP. Conditions: Homo sapiens, 72 hours. The class given is cell-based. Here is the method:
as §1

Assay [6] has as its system P388. As to the kind of experiment: Tumor cell proliferation, P388. The class given is cell-based. Conditions: Mus musculus; P388, 72 hours. Here is the method: as §1
Assay [7] deals with B16F10. Put plainly: Tumor cell proliferation, B16F10. The class given is cell-based. Conditions: Mus musculus, B16-F10; B16F10, 72 hours. Here is the method: as §1
The test system of assay [8] is D54. As to the kind of experiment: Tumor cell proliferation, D54. The conditions noted are these: Homo sapiens; D54, 72 hours. The class given is cell-based, human. Here is the method: as §1
Assay [9] deals with HT1080. Put plainly: Tumor cell proliferation, HT1080. Format: cell-based, human. Conditions: Homo sapiens, HT-1080; HT1080, 72 hours. Here is the method:
as §1

The test system of assay [10] is D54 human glioma cells.
Assay [11] has as its target T1, GRP78 on the surface of human cells (EAHY, HMVEC, HT1080) (human, UniProt P11021 19-654). Put plainly: cell-based or functional assay.
Assay [12] addresses T1, GRP78 on the surface of human cells …. Put plainly: cell-based or functional assay. This is another data set of the same source.
The target in assay [13] is T2, yeast-expressed recombinant human GRP78 (rGRP78) (human, UniProt P11021 19-654, limits assumed).
T2 construct: also called recombinant GRP78
As to the kind of experiment: equilibrium dialysis of rGRP78 and 3H-K5 (FIG. 14A). On the technique in general: In equilibrium dialysis only unbound substance equilibrates across the membrane.

Assay [14] concerns the target T1, GRP78 on the surface of human cells …. Put plainly: labelled K5 binding to endothelial cells (FIG. 10A).
In assay [15] the test system is HMVECs. Put plainly: Competition of 3HK5 binding to endothelial cells. Also noted: species or system human. The conditions noted are these: 2 nM 3HK5; rK5(K82A) up to 500 nM. Here is the method: Each K5 peptide or a N-terminal antibody to GRP78 was added to HMVECs at various concentrations for 1 hour at room temperature. Cells were washed and the amount of ^3HK5 bound was counted.
Binding of human ^125IrK5 to Endothelial Cells: Tritium-labeled rK5 was added to monolayers of 50,000 HMVEC cells that were either starved or stimulated for 16 hours by 15 ng/ml bFGF and 5 ng/ml VEGF in 96 well plates. The number of counts remaining bound to the cells after extensive washing determined total amount of rK5 bound (Dudani A K, Ganz P R. Endothelial cell surface actin serves as a binding site for plasminogen, tissue plasminogen activator and lipoprotein(a). Br J Haematol. 1996 October; 95(1): 168-78). Binding of ^125IK5 (dog) to Endothelial Cells and rK5 to Recombinant GRP78: The same methods as described above for the expression and purification of human K5 were used to express dog rK5 in E. coli. ^125IK5 (dog) was added to the wells and incubated at room temperature for 1 hour. After 1 hour the cells were washed and lysed with M-Per (Pierce, Racine, Wis.) and the amount of ^125IK5 (dog) bound was counted. Scatchard plot analysis was performed using Prism (GraphPad Software, Inc., San Diego, Calif.) software. Competition binding against 5 nM ^125IK5 (dog) was tested using a monoclonal antibody against GRP78 (N-20, Santa Cruz, Calif.) or a monoclonal antibody against K5 (Green Mountain Antibodies, Burlington, Vt.). The antibodies were added to HMVECs at various concentrations for 1 hour at room temperature. Cells were washed and the amount of bound ^125IK5 (dog) bound was counted. Competition binding was also tested against 2 nM 3HK5. K5 peptides or a c-terminal antibody to GRP78 (A-129, Santa Cruz, Calif.) were added to HMVECs at various concentrations for 1 hour at room temperature. Cells were washed, lysed and the amount of ^3HK5 bound was estimated by scintillation counting.

Assay [16] has as its target T3, recombinant human GRP78 (rGRP78) (Homo sapiens, UniProt P11021).
T3 construct: host or cells: yeast
Put plainly: Equilibrium dialysis of rGRP78 and 3HK5. The class given is binding. The conditions noted are these: competition dialysis, 2 nM GRP78 and 2 nM 3HK5; mutant up to 25-fold excess of GRP78. Here is the method: FIG. 14A is a graph showing equilibrium dialysis of recombinant GRP78 (rGRP78) and ^3HK5. ^3HK5 was added to one side of an equilibrium chamber at concentrations from 0.1 to 3 nM. 2 nM GRP78 was added to the other side of the chamber with a […] mwco filter between. ^3HK5 was allowed to equilibrate to both side of the chamber for 72 hours at room temperature. The amount of ^3HK5 on the GRP78 side of the chamber was compared to chamber with ^3HK5 alone to obtain the bound verses free rK5 distribution.
FIG. 14B is a graph showing competition binding dialysis rGRP78 and ^3HK5. Experiments were performed with 2 nM GRP78 and 2 nM ^3HK5 using rK5(K82A) mutant and unlabeled rK5 at various concentrations from 0.5 to 50 nM. The amount of ^3HK5 on both sides of the chamber was measured after 72 hours and compared to the control.
Binding of rK5 to rGRP78 was measured using equilibrium dialysis (Kariv I, Cao H, Oldenburg K R. Development of a high throughput equilibrium dialysis method. J Pharm Sci. 2001 May; 90(5):580-87). In the top well of a 96 well equilibrium dialyzer (molecular weight cut off 50K Daltons, Harvard Apparatus, Holliston, M A) 150 μl of 10 nM rGRP78 was added. In the reciprocal (bottom) chamber, 150 μl of increasing concentrations from 0.1 to 50 nM ^3HK5 was added. The chambers were shaken at room temperature for 72 hours. […]

≈ marks a conversion by molar mass, not a printed value.

Sequence of GRP78 on the surface of human cells (EAHY, HMVEC, HT1080) (human) (P11021 19-654): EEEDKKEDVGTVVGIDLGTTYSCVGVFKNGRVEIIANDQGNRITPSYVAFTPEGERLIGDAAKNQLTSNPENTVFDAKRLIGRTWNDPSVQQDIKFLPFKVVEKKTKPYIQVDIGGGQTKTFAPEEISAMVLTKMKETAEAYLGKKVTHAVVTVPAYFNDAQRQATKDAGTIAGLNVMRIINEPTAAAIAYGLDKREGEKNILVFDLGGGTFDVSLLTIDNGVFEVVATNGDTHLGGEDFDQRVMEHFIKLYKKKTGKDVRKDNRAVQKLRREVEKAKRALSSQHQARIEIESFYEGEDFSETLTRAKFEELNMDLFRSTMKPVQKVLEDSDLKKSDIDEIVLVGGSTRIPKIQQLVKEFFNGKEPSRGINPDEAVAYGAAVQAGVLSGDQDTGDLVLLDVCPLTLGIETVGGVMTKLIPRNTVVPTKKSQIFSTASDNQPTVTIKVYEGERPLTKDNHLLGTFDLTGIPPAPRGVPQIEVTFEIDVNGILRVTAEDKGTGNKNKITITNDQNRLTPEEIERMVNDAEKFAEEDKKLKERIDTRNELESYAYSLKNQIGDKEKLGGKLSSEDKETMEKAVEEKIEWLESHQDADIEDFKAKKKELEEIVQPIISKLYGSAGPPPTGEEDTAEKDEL
T1 sequence (P11021 19-654): as above
T3 sequence (P11021 19-654): as above
T2 sequence (P11021 19-654 limits assumed): as the sequence (P11021 19-654) above

Broadly, the Kd is a measure of binding affinity in units of concentration. In the case of “recombinant dog kringle 5, radioiodinated (^125IrK5 (dog)) (ligand)”, the IC50, inhibition of VEGF stimulated HMVEC migration in assay [1] came to 0.5 nM. For the same molecule, in assay [2], the binding sites per cell (binding sites per cell) was 32500. The molecule further showed a Kd in assay [3] of 0.8 nM.

In general, IC50 refers to the point on the concentration scale where inhibition reaches its midpoint. Read a high IC50 as weaker potency. Consider `COc1cccc2c1C(=O)c1c(O)c3c(c(O)c1C2=O)C[C@@](O)(C(=O)CO)C[C@@H]3O[C@H]1C[C@H](N)[C@H](O)[C@H](C)O1` [Adriamycin, reference compound], for which the IC50 in assay [4] is 118 ± 8 ng/mL (≈ 217 nM); in assay [5], 410 ± 100 ng/mL (≈ 754 nM); in assay [6], 2.6 ± 0.2 ng/mL (≈ 4.78 nM); in [7], 3.2 ± 0.4 ng/mL (≈ 5.89 nM); in assay [8] it was 5 ± 0.4 ng/mL (≈ 9.2 nM); in assay [9], 2 ± 0.3 ng/mL (≈ 3.68 nM). The “effect against D54 cell growth in combination with rK5” value in assay [10] (Adriamycin 50 nM in combination with rK5, 72 hours) is on record as “very effective”. Also, the “inhibition of D54 cell growth, Adriamycin alone” value in assay [10] (Adriamycin 50 nM, 72 hours) was “did not inhibit”.

B1: recombinant human kringle 5 (rK5), Kringle 5 (450-543) of human plasminogen (ligand, UniProt P00747 469-562, looked up)
chain: LLPDVETPSEEDCMFGNGKGYRGKRATTVTGTPCQDWAAQEPHRHSIFTPETNPRAGLEKNYCRNPDGDVGGPWCYTTNPRKLYDYCDVPQCAA
modifications: tritium-labelled where printed as ^3HK5
notes: range 450-543; Made in E. coli (His-tag removed by enterokinase) and in Pichia pastoris; Labelled and unlabelled rK5 are treated as one molecule; also called ^3HK5; H^3K5
As to B1, in assay [11], the “IC50, endothelial cell migration assay (^3HK5)” value came out at 0.2 nM and the “apoptosis of HT1080 cells under hypoxic conditions” value is > 2 fold. Also, in [12], the “IC50, inhibition of VEGF stimulated HMVEC migration” value turned out to be 0.2 nM. For the same molecule, in assay [13], the Kd is ~0.7 nM. Besides, the Kd in assay [14] came out at 0.8 nM.

B2: rK5(K82A): mutant rK5(K82A) (protein)
chain: LLPDVETPSEEDCMFGNGKGYRGKRATTVTGTPCQDWAAQEPHRHSIFTPETNPRAGLEKNYCRNPDGDVGGPWCYTTNPRALYDYCDVPQCAA
In the case of B2, in assay [15], the “blocking of 3HK5 binding to endothelial cells” value is given as “did not inhibit”. In [16], the “blocking of 3HK5 binding to rGRP78” value was “did not block binding”.
